How the values were obtained:
[1] = target: T1, recombinant human Mer-Fc (R and D Systems, cat No 891-MR) (human, UniProt Q12866 26-499, limits assumed); assay: ELISA on coated rhMer-Fc, detection with goat anti-mouse IgG-HRP
T1 construct: Bought protein; also called rhMer-Fc; rhMer; not shown: Fc portion
T1 sequence (looked up): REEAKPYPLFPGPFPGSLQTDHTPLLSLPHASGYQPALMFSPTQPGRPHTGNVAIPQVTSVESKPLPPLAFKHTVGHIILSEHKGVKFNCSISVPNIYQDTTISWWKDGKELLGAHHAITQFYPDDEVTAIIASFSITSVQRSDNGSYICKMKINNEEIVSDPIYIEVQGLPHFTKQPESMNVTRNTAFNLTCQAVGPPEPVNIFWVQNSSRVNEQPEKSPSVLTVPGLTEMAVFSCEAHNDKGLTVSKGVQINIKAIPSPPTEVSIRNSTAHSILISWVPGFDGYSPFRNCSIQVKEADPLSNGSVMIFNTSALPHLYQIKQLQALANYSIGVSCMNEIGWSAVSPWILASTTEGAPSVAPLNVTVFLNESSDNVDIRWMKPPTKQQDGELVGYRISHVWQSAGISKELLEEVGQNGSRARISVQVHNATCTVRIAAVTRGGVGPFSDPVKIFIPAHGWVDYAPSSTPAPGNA
Procedure: (§1) Then ½ serial dilutions were done over 12 columns. Plates were washed and a goat anti-mouse (Jackson) specific IgG-HRP was added for 1 h at 37° C. Reaction development was performed using the TMB substrate solution. […] Coating controls were performed in presence of a goat anti-human IgG Fc polyclonal serum labelled with HRP (Jackson, ref 109-035-098) and/or in presence of a HRP-coupled anti-Histidine antibody (R and D Systems, ref: MAB050H). Results are represented in FIGS. 2A, 2B and 2C, respectively.

[2] = target: monkey Axl receptor expressed on the surface of COS7 cells (African green monkey); assay: flow cytometry on COS7 cells, goat anti-mouse Alexa 488
[3] = target: T2, recombinant human Axl-Fc (R and D Systems, cat No 154-AL / 154AL/CF) (human, UniProt P30530 26-451); assay: ELISA on coated rhAxl-Fc, detection with goat anti-mouse IgG-HRP
T2 construct: Bought protein; also called rhAxl-Fc; rh Axl-Fc protein; not shown: human IgG Fc portion (detected with anti-human IgG Fc)
T2 sequence: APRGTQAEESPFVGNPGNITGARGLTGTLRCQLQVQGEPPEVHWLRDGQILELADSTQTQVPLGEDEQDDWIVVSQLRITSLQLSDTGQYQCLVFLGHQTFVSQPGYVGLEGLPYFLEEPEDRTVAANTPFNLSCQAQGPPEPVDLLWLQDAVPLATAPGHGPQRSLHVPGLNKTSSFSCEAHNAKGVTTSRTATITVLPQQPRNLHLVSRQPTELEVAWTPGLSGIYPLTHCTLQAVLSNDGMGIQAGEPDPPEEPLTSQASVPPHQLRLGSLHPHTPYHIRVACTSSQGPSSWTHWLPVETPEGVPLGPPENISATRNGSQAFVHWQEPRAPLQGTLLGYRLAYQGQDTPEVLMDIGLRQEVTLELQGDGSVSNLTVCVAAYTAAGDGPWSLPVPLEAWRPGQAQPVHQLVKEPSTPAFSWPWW
Procedure: as §1

[4] = target: T3, recombinant human Dtk-Fc (R and D Systems, cat No 859-DK) (human, UniProt Q06418 41-428); assay: ELISA on coated rhDtk-Fc, detection with goat anti-mouse IgG-HRP
T3 construct: Bought protein; also called rhDtk-Fc; rhDtk; not shown: Fc portion
T3 sequence (looked up): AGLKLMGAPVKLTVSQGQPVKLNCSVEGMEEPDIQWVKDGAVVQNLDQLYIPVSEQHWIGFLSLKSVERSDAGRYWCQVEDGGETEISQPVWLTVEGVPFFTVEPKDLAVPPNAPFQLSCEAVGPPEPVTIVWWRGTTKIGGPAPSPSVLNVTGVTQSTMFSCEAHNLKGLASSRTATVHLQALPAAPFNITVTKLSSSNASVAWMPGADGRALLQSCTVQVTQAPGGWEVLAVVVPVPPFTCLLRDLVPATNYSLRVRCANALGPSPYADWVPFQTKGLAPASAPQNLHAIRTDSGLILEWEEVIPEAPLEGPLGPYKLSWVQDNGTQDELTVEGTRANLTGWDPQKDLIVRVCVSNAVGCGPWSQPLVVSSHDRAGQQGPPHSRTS
Procedure: as §1

[5] = target: T2, recombinant human Axl-Fc (R and D …); assay: sandwich ELISA: plate coated with the antibody, rhAxl-Fc titrated (the axis on the sheet reads 'Ab concentration'), detection with a biotinylated anti-Axl antibody and avidin-HRP
Procedure: First ELISA experiments were realized. In the assay, 96 well plates (Immulon II, Thermo Fisher) were coated with a 5 μg/m of the 1613F12 solution in 1×PBS, overnight at 4° C. […] For the revelation step, a biotinylated-Axl antibody (in house product) was added at 0.85 μg/m for 1 hour at 37° C. This Axl antibody belongs to a distinct epitopic group. Then an avidin-horseradish peroxidase solution at 1/2000° in diluent buffer is added to the wells. Then the TMB substrate solution is added for 5 min. After addition of the peroxydase stop solution, the absorbance at […] was measured with a microplate reader.

B1: 1613F12 antibody (murine form) (antibody, V domains shown)
VH: EVHLQQSGAELVKPGASVKLSCTASGFNIRDTYIHWVKQRPEQGLEWIGRLDPANGHTKYGPNFQGRATMTSDTSSNTAYLQLSSLTSEDTAVYYCARGAYYYGSSGLFYFDYWGQGTTLSVSS
VL: DVQITQSPSYLATSPGETITINCRASKSISKYLAWYQEKPGKTNKLLIYSGSTLQSGVPSRFSGSGSGTDFTLTISSLEPEDFAMYFCQQHHEYPLTFGAGTELELK
notes: Whole murine monoclonal antibody purified from a hybridoma; a murine IgG1 (9G4) serves as its isotype control; also called m1613F12; monoclonal antibody 1613F12 derived from the hybridoma I-4505
- binding result [1]: no binding (tested: log -7.5 M)
- EC50 (read off the curve) [2]: 1 nM
- EC50 (read off the curve) [3]: ~1 nM
- binding result [4]: no binding (tested: log -7.5 M)
- EC50 (read off the curve) [5]: ~0.04 µg/mL

From patent US20150037340A1 (PEIRRE FABRE MEDICAMENT, published 2015)
